Assay results from article PMC11255334, “Acetyl-CoA synthetase activity is enzymatically regulated by lysine acetylation using acetyl-CoA or acetyl-phosphate as donor molecule” (Nature Communications, 2024).

B1: Bacillus subtilis AMP-forming acetyl-CoA synthetase AcsA (enzyme, UniProt P39062 1-572, looked up)
chain: MNLKALPAIEGDHNLKNYEETYRHFDWAEAEKHFSWHETGKLNAAYEAIDRHAESFRKNKVALYYKDAKRDEKYTFKEMKEESNRAGNVLRRYGNVEKGDRVFIFMPRSPELYFIMLGAIKIGAIAGPLFEAFMEGAVKDRLENSEAKVVVTTPELLERIPVDKLPHLQHVFVVGGEAESGTNIINYDEAAKQESTRLDIEWMDKKDGFLLHYTSGSTGTPKGVLHVHEAMIQQYQTGKWVLDLKEEDIYWCTADPGWVTGTVYGIFAPWLNGATNVIVGGRFSPESWYGTIEQLGVNVWYSAPTAFRMLMGAGDEMAAKYDLTSLRHVLSVGEPLNPEVIRWGHKVFNKRIHDTWWMTETGSQLICNYPCMDIKPGSMGKPIPGVEAAIVDNQGNELPPYRMGNLAIKKGWPSMMHTIWNNPEKYESYFMPGGWYVSGDSAYMDEEGYFWFQGRVDDVIMTSGERVGPFEVESKLVEHPAIAEAGVIGKPDPVRGEIIKAFIALREGFEPSDKLKEEIRLFVKQGLAAHAAPREIEFKDKLPKTRSGKIMRRVLKAWELNLPAGDLSTMED
notes: AMP-forming acetyl-CoA synthetase AcsA, Bacillus subtilis, UniProt P39062; synthetic gene codon optimized for E. coli; also called AcsA wildtype; non-acetylated AcsA; source: E. coli BL21 (DE3), pET45b(+), purified (HisTrap FF, Ni2+)

Experiments:
[1] = target: T1, AcsA•AcuA complex (Bacillus subtilis, UniProt P39065); assay: lysine acetylation of AcsA K549, anti-AcK immunoblot and SEC; type: biochemical
T1 construct: both N-terminally His6-tagged, E. coli BL21 (DE3); AcuA 25,484 g/mol, monomer alone; apparent heterotetramer; AcsA K549 is the acetyl acceptor; with Acetyl-coenzyme A synthetase (AMP-forming)

[2] = target: the molecule itself; assay: SEC; analytical SEC of the single proteins, Superdex 200 10/300 GL, 50 mM Tris/HCl pH 8, 50 mM KCl, 2 mM β-mercaptoethanol; 100 µl of 50–100 µM injected; MW from a calibration curve
[3] = target: the molecule itself; assay: SEC; analytical SEC of the preformed equimolar AcsA•AcuA complex pretreated with a tenfold molar excess of acetyl-CoA (excess also varied), 30 min at room temperature; fractions checked by anti-AcK immunoblot and Ponceau S
[4] = target: B1; assay: SEC; analytical SEC of equimolar AcsA and AcuA (wild type or mutants), incubated 30 min at room temperature, Superdex 200 10/300 GL, 50 mM Tris/HCl pH 8, 50 mM KCl, 2 mM β-mercaptoethanol; 100 µl of 50–100 µM; without ligand or with a tenfold molar excess of CoA or AcP alone; settings: both partners purified

T1 sequence (P39065 whole entry, one chain of several): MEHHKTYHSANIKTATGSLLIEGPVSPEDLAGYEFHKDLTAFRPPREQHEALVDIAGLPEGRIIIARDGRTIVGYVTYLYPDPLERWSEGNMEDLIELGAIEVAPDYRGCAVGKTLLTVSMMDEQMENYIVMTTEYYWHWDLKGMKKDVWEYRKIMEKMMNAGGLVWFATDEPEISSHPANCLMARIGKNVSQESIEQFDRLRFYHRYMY

CC(=O)OP(=O)(O)O [AcP]
lysine acetylation of AcsA K549, anti-AcK immunoblot and SEC ([1]; intrinsic phosphotransacetylase activity, AcP with CoA as needed co-substrate, 37 °C): upon addition of CoA and AcP, AcsA was strongly acetylated

CC(=O)SCCNC(=O)CCNC(=O)[C@H](O)C(C)(C)COP(=O)(O)OP(=O)(O)OC[C@H]1O[C@@H](n2cnc3c(N)ncnc32)[C@H](O)[C@@H]1OP(=O)(O)O [acetyl-CoA]
lysine acetylation of AcsA K549, anti-AcK immunoblot and SEC ([1]; 200 µM acetyl-CoA, AcuA 5 µM, AcsA 20 µM, acetyltransferase activity): addition of acetyl-CoA to AcsA and AcuA resulted in a strong acetylation of AcsA

B1
stoichiometry N [2]: 2

B2: K549-acetylated Bacillus subtilis AcsA (enzyme, UniProt P39062 1-572, looked up)
chain: MNLKALPAIEGDHNLKNYEETYRHFDWAEAEKHFSWHETGKLNAAYEAIDRHAESFRKNKVALYYKDAKRDEKYTFKEMKEESNRAGNVLRRYGNVEKGDRVFIFMPRSPELYFIMLGAIKIGAIAGPLFEAFMEGAVKDRLENSEAKVVVTTPELLERIPVDKLPHLQHVFVVGGEAESGTNIINYDEAAKQESTRLDIEWMDKKDGFLLHYTSGSTGTPKGVLHVHEAMIQQYQTGKWVLDLKEEDIYWCTADPGWVTGTVYGIFAPWLNGATNVIVGGRFSPESWYGTIEQLGVNVWYSAPTAFRMLMGAGDEMAAKYDLTSLRHVLSVGEPLNPEVIRWGHKVFNKRIHDTWWMTETGSQLICNYPCMDIKPGSMGKPIPGVEAAIVDNQGNELPPYRMGNLAIKKGWPSMMHTIWNNPEKYESYFMPGGWYVSGDSAYMDEEGYFWFQGRVDDVIMTSGERVGPFEVESKLVEHPAIAEAGVIGKPDPVRGEIIKAFIALREGFEPSDKLKEEIRLFVKQGLAAHAAPREIEFKDKLPKTRSGKIMRRVLKAWELNLPAGDLSTMED
modifications: acetyl-lysine at K549
notes: AMP-forming acetyl-CoA synthetase AcsA, Bacillus subtilis, UniProt P39062, acetylated at K549 by AcuA; Formed in the sample from m1 and m2 before the SEC run; K549 is the major acceptor site by the K549R control; also called AcsA AcK549; acetylated AcsA; source: E. coli BL21 (DE3), purified; acetylated in vitro by AcuA with acetyl-CoA, or with AcP and CoA
stoichiometry N [3]: 2

B3: AcuA W140A (enzyme, Bacillus subtilis, UniProt P39065 1-210, looked up)
chain: MEHHKTYHSANIKTATGSLLIEGPVSPEDLAGYEFHKDLTAFRPPREQHEALVDIAGLPEGRIIIARDGRTIVGYVTYLYPDPLERWSEGNMEDLIELGAIEVAPDYRGCAVGKTLLTVSMMDEQMENYIVMTTEYYWHADLKGMKKDVWEYRKIMEKMMNAGGLVWFATDEPEISSHPANCLMARIGKNVSQESIEQFDRLRFYHRYMY
notes: AcuA, Bacillus subtilis, UniProt P39065, with W140A
binding result [4]: binds

B4: AcuA E97Q/E135Q (enzyme, Bacillus subtilis, UniProt P39065 1-210, looked up)
chain: MEHHKTYHSANIKTATGSLLIEGPVSPEDLAGYEFHKDLTAFRPPREQHEALVDIAGLPEGRIIIARDGRTIVGYVTYLYPDPLERWSEGNMEDLIQLGAIEVAPDYRGCAVGKTLLTVSMMDEQMENYIVMTTQYYWHWDLKGMKKDVWEYRKIMEKMMNAGGLVWFATDEPEISSHPANCLMARIGKNVSQESIEQFDRLRFYHRYMY
notes: AcuA, Bacillus subtilis, UniProt P39065, with E97Q and E135Q; also called double mutant AcuA E97Q/E135Q
binding result [4]: binds

B5: AcuA W140F (enzyme, Bacillus subtilis, UniProt P39065 1-210, looked up)
chain: MEHHKTYHSANIKTATGSLLIEGPVSPEDLAGYEFHKDLTAFRPPREQHEALVDIAGLPEGRIIIARDGRTIVGYVTYLYPDPLERWSEGNMEDLIELGAIEVAPDYRGCAVGKTLLTVSMMDEQMENYIVMTTEYYWHFDLKGMKKDVWEYRKIMEKMMNAGGLVWFATDEPEISSHPANCLMARIGKNVSQESIEQFDRLRFYHRYMY
notes: AcuA, Bacillus subtilis, UniProt P39065, with W140F
binding result [4]: binds
